Measurements reported in the supplement of paper PMC12042874.
± gives the uncertainty stated by the source.

Test: amyloid nucleation score (Sup35N fusion, yeast selection) (log enrichment); library NNK2; higher = more nucleation; inactive = no reads after selection
Outline: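 For the nucleation score, DiMSum gave the log enrichment of output over input reads, centred on the mode score of non-aggregating sequences. Psi-negative yeast expressing Sup35N fused to peptides of 20 random codons were induced with 100 μM copper sulfate for 24 hours and grown 7 days at 30°C on medium lacking adenine and uracil. Input and output plasmid inserts were Illumina-sequenced, and sequences with under 100 input reads were excluded.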

First: TYTKFISILRSALSLMYLAS
Second: TYVCDNTESYTCLWLL
The amyloid nucleation score of the first is lower: 0.972 ± 0.67 for the first, 7.791 ± 0.038 for the second.

TYVMPSVVIKNCH and TYVYKYLFWSIPCMA are within error of each other in amyloid nucleation score: -0.267 ± 0.79 for the first, 0.715 ± 0.66 for the second.

Compared with VADHVCFVCRHTLDP, VAHSVTGFQWHACSREMNFR is higher in amyloid nucleation score: -0.317 ± 0.62 for the first, 4.57 ± 0.12 for the second.

VAKRISHGIQLSLSCKGTRP and VAKYLHYMSWVWRFMAWSYV are within error of each other in amyloid nucleation score: 0.138 ± 0.76 for the first, -1.15 ± 1 for the second.

VALMYFRFQKFDSSSSMHRF and VALQWMG are within error of each other in amyloid nucleation score: 2.5 ± 0.18 for the first, 2.2 ± 0.19 for the second.

Going from VALSSVFKEESCRVIRIMES to VAMVVRGTLYPALCPTYWVS, the amyloid nucleation score rises from -1.02 ± 0.32 to 2.25 ± 0.11.

VANNTGAKSYVFMARNAMCF and VAQSRLT are within error of each other in amyloid nucleation score: -0.602 ± 0.49 for the first, 0.521 ± 0.8 for the second.

Going from VAVVFTKYSSRTYLGVGSVG to VAYVQCD, the amyloid nucleation score falls from 4.21 ± 0.07 to 0.035 ± 0.39.

Going from VAYYLCAGTSGDTFGKANQS to VCASYMQFIDHCSKKEVWLN, the amyloid nucleation score falls from 0.222 ± 0.8 to -1.1 ± 0.44.

First: VCFGIKWSMLCWYFMDGGQQ
Second: VCGGVRYYLNTFYIKR
The amyloid nucleation score of the first is lower: 2.05 ± 0.16 for the first, 7.566 ± 0.054 for the second.

Going from VCNSLCDSYF to VCQLQYILRNMLDKTRVSQD, the amyloid nucleation score rises from -1.28 ± 0.56 to 0.912 ± 0.26.

Going from VCRVFIKLYI to VCVIISLHRV, the amyloid nucleation score rises from 1.03 ± 0.21 to 4.99 ± 0.058.

Going from VCWGFSFATHGLWDMAF to VCWTNSWVCNSGVLSGVGAA, the amyloid nucleation score rises from -0.32 ± 0.26 to 1.41 ± 0.18.

Compared with VCYAGLLAKRLRLVVVSGNV, VCYIPYMLRSHLNALTFLSV is lower in amyloid nucleation score: 0.531 ± 0.26 for the first, -0.492 ± 0.76 for the second.

VCYKYRTCYIYISFRSNFST and VCYRSKASILLYGTPGGVRV are within error of each other in amyloid nucleation score: -1.04 ± 1.1 for the first, -0.184 ± 1.1 for the second.

First: VDANIHWTCNSG
Second: VDFLLYLVSSTFGRARKWVY
The amyloid nucleation score of the first is higher: 0.322 ± 0.38 for the first, -0.425 ± 0.27 for the second.

VDGTFYLTYFTTCVQSIFFA and VDGVKTSIKGRNFI are within error of each other in amyloid nucleation score: 0.558 ± 0.6 for the first, -0.259 ± 0.45 for the second.

VDLGNYSSYRDFRETRLRPM and VDLTIVHRGGGAGMGSNRVK are within error of each other in amyloid nucleation score: 0.229 ± 0.39 for the first, 0.176 ± 0.24 for the second.

Compared with VDMPTSQFVTSTTLGTLVTM, VDPPLGKWGAEGCI is lower in amyloid nucleation score: 2.32 ± 0.12 for the first, 0.484 ± 0.51 for the second.

First: VDRMVDIMCTTKKMIHAF
Second: VDVNVHIAGIWLWFYLWRYV
The amyloid nucleation score of the first is higher: 1.45 ± 0.4 for the first, -0.768 ± 1.1 for the second.

Compared with VDWRNFIGLLNLTDCSDRYH, VDYVGSYTVSEDREENLAKP is higher in amyloid nucleation score: -0.744 ± 0.34 for the first, 3.75 ± 0.096 for the second.

Going from VDYYDIQCL to VEAWGP, the amyloid nucleation score falls from 0.649 ± 0.36 to -0.948 ± 0.45.

First: VEFNNAFNNCSLLFSDPRSS
Second: VEMSEDEPCLWYGSLIPGTR
The amyloid nucleation score of the first is higher: 3.34 ± 0.12 for the first, 2.83 ± 0.18 for the second.

VERVPGCTRTRTFWLNSSDW and VETMY are within error of each other in amyloid nucleation score: 0.591 ± 0.25 for the first, 1.24 ± 0.43 for the second.

Compared with VEVYTVSSYVDYVYPDCRGV, VFEVDLFWRSKFNSCLLPFR is lower in amyloid nucleation score: 0.418 ± 0.62 for the first, -0.95 ± 0.36 for the second.

Compared with VFGYTSRR, VFIMRISCY is lower in amyloid nucleation score: 3.49 ± 0.057 for the first, -0.424 ± 1.1 for the second.

VFLAPRMF and VFLVCYTYLWTFKSCTYFMN are within error of each other in amyloid nucleation score: -0.864 ± 0.45 for the first, -1.88 ± 0.78 for the second.

VFLYAYYLNI and VFTYLSSDFYTGWTMVNHIM are within error of each other in amyloid nucleation score: 0.039 ± 0.77 for the first, -0.357 ± 0.21 for the second.

First: VGAMLKWLT
Second: VGDCITAWRSWNNCFVGYGP
The amyloid nucleation score of the first is lower: 0.378 ± 0.23 for the first, 3.2 ± 0.053 for the second.

VGFRSSCMVTSLIY and VGFSNGLDFDAVFNMKCQQW are within error of each other in amyloid nucleation score: -1.64 ± 0.44 for the first, -0.965 ± 0.41 for the second.

First: VGGFRGRVTSHSPMRMCIQR
Second: VGGGVHGEFGHHYCPSVLGL
The amyloid nucleation score of the first is lower: -0.114 ± 1 for the first, 1.81 ± 0.2 for the second.

VGGLFYLLLMG and VGGYLAICNGLSSLCLDPG are within error of each other in amyloid nucleation score: -0.865 ± 0.53 for the first, -0.59 ± 1.1 for the second.

First: VGIFLKSYV
Second: VGKMVNVDGRSPSCWSVWH
The amyloid nucleation score of the first is lower: -1.32 ± 1 for the first, 0.47 ± 0.13 for the second.

Compared with VGNIGPT, VGRVHSLSDYCDFGKSWFKY is lower in amyloid nucleation score: 0.338 ± 0.46 for the first, -0.864 ± 0.74 for the second.

Compared with VGSSHQSLEATKWGVVVLCR, VGVVVNFRASGPGFE is higher in amyloid nucleation score: 6.569 ± 0.049 for the first, 8.288 ± 0.061 for the second.

VGVWTALTPCKVVFTSDRLS and VGYSEMGVADLGHGGW are within error of each other in amyloid nucleation score: 1.23 ± 0.4 for the first, 1.15 ± 0.31 for the second.

VHDFTRNRKWWDNLWSDRSM and VHDQIPE are within error of each other in amyloid nucleation score: 0.399 ± 0.47 for the first, 0.071 ± 0.79 for the second.

First: VHELCTYNLFEPVCSLVWYR
Second: VHGRGNLKA
The amyloid nucleation score of the first is higher: 9.545 ± 0.05 for the first, 0.032 ± 0.33 for the second.

Going from VHPSDGAGLYS to VHRSLSLFSFKSSECRPS, the amyloid nucleation score rises from -1.34 ± 0.78 to 6.456 ± 0.064.

First: VHRTEVRLLSQGTRYVSCNS
Second: VHVRGACCHGCRARNVSGHP
The amyloid nucleation score of the first is higher: 2.06 ± 0.3 for the first, 1.05 ± 0.19 for the second.

For VICFAMSMILR, the amyloid nucleation score was 3.38 ± 0.13.

With VCFCQAFYGTRYHKCLVGLF the amyloid nucleation score was “inactive”.
With VCVLGIGT the amyloid nucleation score was “inactive”.
With VDLAR the amyloid nucleation score was “inactive”.
For VDLCDFCKLVASMVEDGSRE, the amyloid nucleation score was “inactive”.
In the case of VERRVGEVRFIDAGVFGLGY, the amyloid nucleation score is reported as “inactive”.
In the case of VFYNAASDFLAILQEFTSSH, the amyloid nucleation score is reported as “inactive”.
